According to patent US20230322927A1:

Columns and labels:
[1] = molecular target: human CD28 on cells (human) (UniProt P10747); assay: flow cytometry on human CD2+/CD8+ T cells, Alexa647 read-out
[2] = molecular target: cynomolgus CD28 on cynomolgus T cells (cynomolgus) (UniProt Q0PDN3); assay: flow cytometry on cynomolgus CD2+/CD4+ T cells, Alexa647 read-out
[3] = molecular target: human CD28 on cells (human) (UniProt P10747); assay: flow cytometry on human CD2+/CD4+ T cells, Alexa647 read-out
[4] = molecular target: cynomolgus CD28 on cynomolgus T cells (cynomolgus) (UniProt Q0PDN3); assay: flow cytometry on cynomolgus CD2+/CD8+ T cells, Alexa647 read-out

Measured: EC50 (read off the curve)

REGN5705 (antibody)
50 pM: all assays above
